# Measurements reported in publication PMC12572195 (Nature Communications, 2025).
# Target: SPT6 (human, UniProt Q7KZ85 1-1726)
# Experiment: cell-based or functional assay
binder,measurement,value
SETD2 (residues 1446-2564) (domain or fragment) GPSCVMDDFRDPQRWKECAKQGKMPCYFDLIEENVYLTERKKNKSHRDIKRMQCECTPLSKDERAQGEIACGEDCLNRLLMIECSSRCPNGDYCSNRRFQRKQHADVEVILTEKKGWGLRAAKDLPSNTFVLEYCGEVLDHKEFKARVKEYARNKNIHYYFMALKNDEIIDATQKGNCSRFMNHSCEPNCETQKWTVNGQLRVGFFTTKLVPSGSELTFDYQFQRYGKEAQKCFCGSANCRGYLGGENRVSIRAAGGKMKKERSRKKDSVDGELEALMENGEGLSDKNQVLSLSRLMVRIETLEQKLTCLELIQNTHSQSCLKSFLERHGLSLLWIWMAELGDGRESNQKLQEEIIKTLEHLPIPTKNMLEESKVLPIIQRWSQTKTAVPPLSEGDGYSSENTSRAHTPLNTPDPSTKLSTEADTDTPKKLMFRRLKIISENSMDSAISDATSELEGKDGKEDLDQLENVPVEEEEELQSQQLLPQQLPECKVDSETNIEASKLPTSEPEADAEIEPKESNGTKLEEPINEETPSQDEEEGVSDVESERSQEQPDKTVDISDLATKLLDSWKDLKEVYRIPKKSQTEKENTTTERGRDAVGFRDQTPAPKTPNRSRERDPDKQTQNKEKRKRRSSLSPPSSAYERGTKRPDDRYDTPTSKKKVRIKDRNKLSTEERRKLFEQEVAQREAQKQQQQMQNLGMTSPLPYDSLGYNAPHHPFAGYPPGYPMQAYVDPSNPNAGKVLLPTPSMDPVCSPAPYDHAQPLVGHSTEPLSAPPPVPVVPHVAAPVEVSSSQYVAQSDGVVHQDSSVAVLPVPAPGPVQGQNYSVWDSNQQSVSVQQQYSPAQSQATIYYQGQTCPTVYGVTSPYSQTTPPIVQSYAQPSLQYIQGQQIFTAHPQGVVVQPAAAVTTIVAPGQPQPLQPSEMVVTNNLLDLPPPSPPKPKTIVLPPNWKTARDPEGKIYYYHVITRQTQWDPPTWESPGDDASLEHEAEMDLGTPTYDENPMKASKKPKTAEADTSSELAKKSKEVFRKEMSQFIVQCLNPYRKPDCKVGRITTTEDFKHLARKLTHGVMNKELKYCKNPEDLECNENVKHKTKEYIKKYMQKFGAVYKPKEDTELE,"co-transcriptional methylation assay (3H activity) with SETD2 Construct 4 (includes the complete SBR, lacks the SRI domain)",~50 % of WT
